Test results reported in US11795460B2, “Compositions and methods for TTR gene editing and treating ATTR amyloidosis” (Intellia Therapeutics, Inc., priority 2017, dated 2023).
Strand notation (5' to 3'): a small letter for the sugar, then the base; units joined by * are phosphorothioate-linked, units joined directly phosphodiester-linked; [ ] holds rarer units or linkages, { } end groups; capitals alone tell only the bases. m = 2'-O-methyl; r = 2'-OH (RNA)

B1: G000493: TTR sgRNA modified sequence, Human, SEQ ID No. 100; guide sequence of CR003368 (nucleic acid)
guide: mA*mA*mG*rUrGrCrCrUrUrCrCrArGrUrArArGrArUrUrGrUrUrUrUrArGrAmGmCmUmAmGmAmAmAmUmAmGmCrArArGrUrUrArArArArUrArArGrGrCrUrArGrUrCrCrGrUrUrArUrCrAmAmCmUmUmGmAmAmAmAmAmGmUmGmGmCmAmCmCmGmAmGmUmCmGmGmUmGmCmU*mU*mU*mU
B2: G000491: TTR sgRNA modified sequence, Human, SEQ ID No. 98; guide sequence of CR003338 (nucleic acid)
guide: mA*mU*mA*rCrCrArGrUrCrCrArGrCrArArGrGrCrArGrGrUrUrUrUrArGrAmGmCmUmAmGmAmAmAmUmAmGmCrArArGrUrUrArArArArUrArArGrGrCrUrArGrUrCrCrGrUrUrArUrCrAmAmCmUmUmGmAmAmAmAmAmGmUmGmGmCmAmCmCmGmAmGmUmCmGmGmUmGmCmU*mU*mU*mU
B3: G000484: TTR sgRNA modified sequence, Human, SEQ ID No. 91; guide sequence of CR003367 (nucleic acid)
guide: mA*mG*mA*rCrArCrCrArArArUrCrUrUrArCrUrGrGrArGrUrUrUrUrArGrAmGmCmUmAmGmAmAmAmUmAmGmCrArArGrUrUrArArArArUrArArGrGrCrUrArGrUrCrCrGrUrUrArUrCrAmAmCmUmUmGmAmAmAmAmAmGmUmGmGmCmAmCmCmGmAmGmUmCmGmGmUmGmCmU*mU*mU*mU
B4: G000483: TTR sgRNA modified sequence, Human, SEQ ID No. 90; guide sequence of CR005298 (nucleic acid)
guide: mU*mC*mC*rArCrUrCrArUrUrCrUrUrGrGrCrArGrGrArGrUrUrUrUrArGrAmGmCmUmAmGmAmAmAmUmAmGmCrArArGrUrUrArArArArUrArArGrGrCrUrArGrUrCrCrGrUrUrArUrCrAmAmCmUmUmGmAmAmAmAmAmGmUmGmGmCmAmCmCmGmAmGmUmCmGmGmUmGmCmU*mU*mU*mU
B5: G000500: TTR sgRNA modified sequence, Human, SEQ ID No. 107; guide sequence of CR003337 (nucleic acid)
guide: mC*mC*mA*rGrUrCrCrArGrCrArArGrGrCrArGrArGrGrGrUrUrUrUrArGrAmGmCmUmAmGmAmAmAmUmAmGmCrArArGrUrUrArArArArUrArArGrGrCrUrArGrUrCrCrGrUrUrArUrCrAmAmCmUmUmGmAmAmAmAmAmGmUmGmGmCmAmCmCmGmAmGmUmCmGmGmUmGmCmU*mU*mU*mU
B6: G000492: TTR sgRNA modified sequence, Human, SEQ ID No. 99; guide sequence of CR003342 (nucleic acid)
guide: mC*mU*mU*rCrUrCrUrArCrArCrCrCrArGrGrGrCrArCrGrUrUrUrUrArGrAmGmCmUmAmGmAmAmAmUmAmGmCrArArGrUrUrArArArArUrArArGrGrCrUrArGrUrCrCrGrUrUrArUrCrAmAmCmUmUmGmAmAmAmAmAmGmUmGmGmCmAmCmCmGmAmGmUmCmGmGmUmGmCmU*mU*mU*mU
B7: G000490: TTR sgRNA modified sequence, Human, SEQ ID No. 97; guide sequence of CR003366 (nucleic acid)
guide: mA*mA*mA*rUrArGrArCrArCrCrArArArUrCrUrUrArCrGrUrUrUrUrArGrAmGmCmUmAmGmAmAmAmUmAmGmCrArArGrUrUrArArArArUrArArGrGrCrUrArGrUrCrCrGrUrUrArUrCrAmAmCmUmUmGmAmAmAmAmAmGmUmGmGmCmAmCmCmGmAmGmUmCmGmGmUmGmCmU*mU*mU*mU
B8: G000497: TTR sgRNA modified sequence, Human, SEQ ID No. 104; guide sequence of CR003335 (nucleic acid)
guide: mC*mU*mG*rCrUrCrCrUrCrCrUrCrUrGrCrCrUrUrGrCrGrUrUrUrUrArGrAmGmCmUmAmGmAmAmAmUmAmGmCrArArGrUrUrArArArArUrArArGrGrCrUrArGrUrCrCrGrUrUrArUrCrAmAmCmUmUmGmAmAmAmAmAmGmUmGmGmCmAmCmCmGmAmGmUmCmGmGmUmGmCmU*mU*mU*mU
B9: G000498: TTR sgRNA modified sequence, Human, SEQ ID No. 105; guide sequence of CR003359 (nucleic acid)
guide: mA*mG*mU*rGrArGrUrCrUrGrGrArGrArGrCrUrGrCrArGrUrUrUrUrArGrAmGmCmUmAmGmAmAmAmUmAmGmCrArArGrUrUrArArArArUrArArGrGrCrUrArGrUrCrCrGrUrUrArUrCrAmAmCmUmUmGmAmAmAmAmAmGmUmGmGmCmAmCmCmGmAmGmUmCmGmGmUmGmCmU*mU*mU*mU
B10: G000485: TTR sgRNA modified sequence, Human, SEQ ID No. 92; guide sequence of CR003336 (nucleic acid)
guide: mC*mC*mU*rCrCrUrCrUrGrCrCrUrUrGrCrUrGrGrArCrGrUrUrUrUrArGrAmGmCmUmAmGmAmAmAmUmAmGmCrArArGrUrUrArArArArUrArArGrGrCrUrArGrUrCrCrGrUrUrArUrCrAmAmCmUmUmGmAmAmAmAmAmGmUmGmGmCmAmCmCmGmAmGmUmCmGmGmUmGmCmU*mU*mU*mU
B11: G000495: TTR sgRNA modified sequence, Human, SEQ ID No. 102; guide sequence of CR003343 (nucleic acid)
guide: mC*mA*mG*rArGrGrArCrArCrUrUrGrGrArUrUrCrArCrGrUrUrUrUrArGrAmGmCmUmAmGmAmAmAmUmAmGmCrArArGrUrUrArArArArUrArArGrGrCrUrArGrUrCrCrGrUrUrArUrCrAmAmCmUmUmGmAmAmAmAmAmGmUmGmGmCmAmCmCmGmAmGmUmCmGmGmUmGmCmU*mU*mU*mU

What was measured:
TTR [1] = assay: TTR editing in primary cyno hepatocytes treated with LNP formulated Spy Cas9 mRNA (SEQ ID NO: 2) and sgRNAs (Tables 17, 18); type: cell-based, cynomolgus monkey; conditions: Table 17, LNP formulated Spy Cas9 mRNA (SEQ ID NO: 2) and sgRNA, 12.5 ng mRNA, 3.9 nM sgRNA, 72 hours
Method in brief: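 Primary cynomolgus hepatocytes, 24 h after plating, dosed with LNPs (N:P about 4.5 or 6, mRNA:gRNA 1:1 by weight) pre-incubated 5 min at 37° C. in medium with 6% cyno serum, in an 8-point 2-fold dose response. Editing = indel/substitution reads over total reads by amplicon MiSeq sequencing.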

TTR [2] = assay: TTR editing in primary human hepatocytes treated with LNP formulated Spy Cas9 mRNA (SEQ ID NO: 2) and sgRNAs (Table 16); type: cell-based; conditions: LNP formulated Spy Cas9 mRNA (SEQ ID NO: 2) and sgRNA, 72 hours
Procedure: Primary liver hepatocytes. Primary human liver hepatocytes (PHH) and primary cynomolgus liver hepatocytes (PCH) (Gibco) were cultured per the manufacturer's protocol (Invitrogen, protocol 11.28.2012). In brief, the cells were thawed and resuspended in hepatocyte thawing medium with supplements (Gibco, Cat. CM7000) followed by centrifugation at 100 g for 10 minutes for human and 80 g for 4 minutes for cyno. The supernatant was discarded and the pelleted cells resuspended in hepatocyte plating medium plus supplement pack (Invitrogen, Cat. A1217601 and CM3000). Cells were counted and plated on Bio-coat collagen I coated 96-well plates (ThermoFisher, Cat. 877272) at a density of 33,000 cells/well for human or 60,000 cells/well for cyno (or 65,000 cells/well when assaying effects on TTR protein, described further below). Plated cells were allowed to settle and adhere for 6 or 24 hours in a tissue culture incubator at 37° C. and 5% CO2 atmosphere. After incubation cells were checked for monolayer formation and media was replaced with hepatocyte culture medium with serum-free supplement pack (Invitrogen, Cat. A1217601 and CM4000).
In general, the lipid nanoparticle components were dissolved in 100% ethanol with the lipid component of various molar ratios. The RNA cargos were dissolved in 25 mM citrate, 100 mM NaCl, pH 5.0, resulting in a concentration of RNA cargo of approximately 0.45 mg/mL. The LNPs were formulated with a lipid amine to RNA phosphate (N:P) molar ratio of about 4.5 or about 6, with the ratio of mRNA to gRNA at 1:1 by weight.
The LNPs were formed by microfluidic mixing of the lipid and RNA solutions using a Precision Nanosystems NanoAssemblr™ Benchtop Instrument, according to the manufacturer's protocol. A 2:1 ratio of aqueous to organic solvent was maintained during mixing using differential flow rates. After mixing, the LNPs were collected, diluted in water (approximately 1:1 v/v), held for 1 hour at room temperature, and further diluted with water (approximately 1:1 v/v) before final buffer exchange. The final buffer exchange into 50 mM Tris, 45 mM NaCl, 5% (w/v) sucrose, pH 7.5 (TSS) was completed with PD-10 desalting columns (GE). If required, formulations were concentrated by centrifugation with Amicon 100 kDa centrifugal filters (Millipore). The resulting mixture was then filtered using a 0.2 μm sterile filter. The final LNP was stored at −80° C. until further use.
To quantitatively determine the efficiency of editing at the target location in the genome, sequencing was utilized to identify the presence of insertions and deletions introduced by gene editing.
Primers were designed around the target site within the gene of interest (e.g. TTR), and the genomic area of interest was amplified.
Additional PCR was performed per the manufacturer's protocols (Illumina) to add chemistry for sequencing. The amplicons were sequenced on an Illumina MiSeq instrument. The reads were aligned to a reference genome (e.g., the human reference genome (hg38), the cynomologus reference genome (mf5), the rat reference genome (rn6), or the mouse reference genome (mm10)) after eliminating those having low quality scores. The resulting files containing the reads were mapped to the reference genome (BAM files), where reads that overlapped the target region of interest were selected and the number of wild type reads versus the number of reads which contain an insertion, substitution, or deletion was calculated.
The editing percentage (e.g., the “editing efficiency” or “percent editing” or “indel frequency”) is defined as the total number of sequence reads with insertions/deletions (“indels”) or substitutions over the total number of sequence reads, including wild type.
Lipid nanoparticle formulations of modified sgRNAs targeting human TTR and the cyno matched sgRNA sequences were tested on primary human hepatocytes and primary cyno hepatocytes in a dose response curve. Primary human and cyno hepatocytes were plated as described in Example 1. […]

[3] = system: off-target integration sites; assay: Off-target oligo insertion based assay in primary human hepatocytes (Table 30); type: cell-based; conditions: TTR sgRNAs in PHH, 100 ng Cas9 mRNA, 25 nM sgRNA, 12.5 nM donor oligo
Procedure: Off-target analysis of sgRNAs targeting TTR was performed in primary human hepatocytes (PHH) as described in Example 5, with the following modifications. PHH were plated at a density of 33,000 cells per well on collagen-coated 96-well plates as described in Example 1. Twenty-four hours post plating, cells were washed with media and transfected using Lipofectamine RNAiMAX (ThermoFisher, Cat. 13778150) as described in Example 1. Cells were transfected with a lipoplex containing 100 ng Cas9 mRNA, immediately followed by the addition of another lipoplex containing 25 nM of the sgRNA and 12.5 nM of the donor oligo (0.3 μL/well). Cells were lysed 48 hours post-transfection and gDNA was extracted and analyzed as further described in Example 5. The data is graphically represented in FIG. 20.
Fewer sites were detected in PHH for every guide tested as compared to the HekCas9 cell line, with no unique sites detected in PHH alone.

Molecule	12.5 ng mRNA, 3.9 nM sgRNA Avg % Edit (TTR [1]) [%]	12.5 ng mRNA, 3.9 nM sgRNA Avg % Edit (TTR [2]) [%]	# Sites in PHH [3]
B1	7.63	7.33	1
B2	6.37	31.60	7
B3	0.10	16.67	0
B4	0.73	7.37	0
B5	10.47	23.57	12
B6	0.70	15.87	5
B7	15.23	10.53	0
B8	0.23	15.10	3
B9	37.90	24.43	19
B10	1.43	14.23	3
B11	0.73	23.97	1
